Reference: patent publication US20180043014A1 (CELLDEX THERAPEUTICS, published 2018)

Target: T1, CG56972-ECD, recombinant human GPNMB extracellular domain (aa 23-480), GPNMB-V5His (human, UniProt Q14956 23-492)
T1 construct: Expressed in HEK293 cells; also called GPNMB-V5His immunogen; purified CG56972-ECD protein; not shown: The tag would matter only for the xV5 reagent, not for the anti-GPNMB antibodies
T1 sequence: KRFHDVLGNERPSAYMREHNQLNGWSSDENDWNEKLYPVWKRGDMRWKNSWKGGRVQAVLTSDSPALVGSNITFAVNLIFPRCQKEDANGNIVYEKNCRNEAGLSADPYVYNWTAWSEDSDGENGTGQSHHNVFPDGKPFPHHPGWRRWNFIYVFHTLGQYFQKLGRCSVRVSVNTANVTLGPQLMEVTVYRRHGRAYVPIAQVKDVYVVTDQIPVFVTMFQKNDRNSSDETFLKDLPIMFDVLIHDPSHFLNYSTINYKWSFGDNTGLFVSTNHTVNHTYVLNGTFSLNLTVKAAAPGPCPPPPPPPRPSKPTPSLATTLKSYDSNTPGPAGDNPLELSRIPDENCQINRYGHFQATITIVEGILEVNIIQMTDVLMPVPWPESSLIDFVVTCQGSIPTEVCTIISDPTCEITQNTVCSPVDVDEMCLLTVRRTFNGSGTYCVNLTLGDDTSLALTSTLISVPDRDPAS
Assay: method not stated; purified CG56972-ECD protein

B1: CR011, fully human monoclonal antibody Mab 1.15.1 (IgG2) (antibody, V domains shown)
VH: QVQLQESGPGLVKPSQTLSLTCTVSGGSISSFNYYWSWIRHHPGKGLEWIGYIYYSGSTYSNPSLKSRVTISVDTSKNQFSLTLSSVTAADTAVYYCARGYNWNYFDYWGQGTLVTVSS
VL: not shown
notes: The unconjugated IgG2 form was used in flow cytometry; also called CR011 (anti-GPNMB)
For B1, the Kd was 52 nM.
